Laboratory results from IntAct's records for PubMed 30845169.

B1: Centrosomal protein POC5 (Homo sapiens), Q8NA72 (parent)
chain: MSSDEEKYSLPVVQNDSSRGSSVSSNLQEEYEELLHYAIVTPNIEPCASQSSHPKGELVPDVRISTIHDILHSQGNNSEVRETAIEVGKGCDFHISSHSKTDESSPVLSPRKPSHPVMDFFSSHLLADSSSPATNSSHTDAHEILVSDFLVSDENLQKMENVLDLWSSGLKTNIISELSKWRLNFIDWHRMEMRKEKEKHAAHLKQLCNQINELKELQKTFEISIGRKDEVISSLSHAIGKQKEKIELMRTFFHWRIGHVRARQDVYEGKLADQYYQRTLLKKVWKVWRSVVQKQWKDVVERACQARAEEVCIQISNDYEAKVAMLSGALENAKAEIQRMQHEKEHFEDSMKKAFMRGVCALNLEAMTIFQNRNDAGIDSTNNKKEEYGPGVQGKEHSAHLDPSAPPMPLPVTSPLLPSPPAAVGGASATAVPSAASMTSTRAASASSVHVPVSALGAGSAATAASEEMYVPRVVTSAQQKAGRTITARITGRCDFASKNRISSSLAIMGVSPPMSSVVVEKHHPVTVQTIPQATAAKYPRTIHPESSTSASRSLGTRSAHTQSLTSVHSIKVVD

Variants of: B1
Conditions: with tba4a_human TUBA4A

Variant | effect of a mutation on the interaction
MSSDEEKYSLPVVQNDSSRGSSVSSNLQEEYEELLHYAIVTPNIEPCASQSSHPKGELVPDVRISTIHDILHSQGNNSEVRETAIEVGKGCDFHISSHSKTDESSPVLSPRKPSHPVMDFFSSHLLADSSSPATNSSHTDAHEILVSDFLVSDENLQKMENVLDLWSSGLKTNIISELSKWRLNFIDWHRMEMRKEKEKHAAHLKQLCNQINELKELQKTFEISIGRKDEVISSLSHAIGKQKEKIELMRTFFHWRIGHVRARQDVYEGKLADQYYQRTLLKKVWKVWRSVVQKQWKDVVERACQARAEEVCIQISNDYEAKVAMLSGALENAKAEIQRMQHEKEHFEDSMKKAFMRGVCALNLEAMTIFQNRNDAGIDSTNNKKEEYGPGVQGKEHSAHLDPSAPPMPLPVTSPLLPSPPAAVGGASVTAVPSAASMTSTRAASASSVHVPVSALGAGSAATAASEEMYVPRVVTSAQQKAGRTITARITGRCDFASKNRISSSLAIMGVSPPMSSVVVEKHHPVTVQTIPQATAAKYPRTIHPESSTSASRSLGTRSAHTQSLTSVHSIKVVD [A429V] | decreasing interaction strength

Variants of: B1
Conditions: with tba4a_human TUBA4A
Remark: another data set of the same source

Variant | effect of a mutation on the interaction
MSSDEEKYSLPVVQNDSSRGSSVSSNLQEEYEELLHYAIVTPNIEPCASQSSHPKGELVPDVRISTIHDILHSQGNNSEVRETAIEVGKGCDFHISSHSKTDESSPVLSPRKPSHPVMDFFSSHLLADSSSPATNSSHTDAHEILVSDFLVSDENLQKMENVLDLWSSGLKTNIISELSKWRLNFIDWHRMEMRKEKEKHAAHLKQLCNQINELKELQKTFEISIGRKDEVISSLSHAIGKQKEKIELMRTFFHWRIGHVRARQDVYEGKLADQYYQRTLLKKVWKVWRSVVQKQWKDVVERACQARAEEVCIQISNDYEAKVAMLSGALENAKAEIQRMQHEKEHFEDSMKKAFMRGVCALNLEAMTIFQNRNDAGIDSTNNKKEEYGPGVQGKEHSAHLDPSAPPMPLPVTSPLLPSPPAAVGGASVTAVPSAASMTSTRAASASSVHVPVSALGAGSAATAASEEMYVPRVVTSAQQKAGRTITARITGRCDFASKNRISSSLAIMGVSPPMSSVVVEKHHPVTVQTIPQATAAKYPRTIHPESSTSASRSLGTRSAHTQSLTSVHSIKVVD [A429V] | disrupting interaction strength
